The chains are these.
T1: GHRH receptor in human pituitary membrane homogenates (human, UniProt Q02643)
T1 sequence: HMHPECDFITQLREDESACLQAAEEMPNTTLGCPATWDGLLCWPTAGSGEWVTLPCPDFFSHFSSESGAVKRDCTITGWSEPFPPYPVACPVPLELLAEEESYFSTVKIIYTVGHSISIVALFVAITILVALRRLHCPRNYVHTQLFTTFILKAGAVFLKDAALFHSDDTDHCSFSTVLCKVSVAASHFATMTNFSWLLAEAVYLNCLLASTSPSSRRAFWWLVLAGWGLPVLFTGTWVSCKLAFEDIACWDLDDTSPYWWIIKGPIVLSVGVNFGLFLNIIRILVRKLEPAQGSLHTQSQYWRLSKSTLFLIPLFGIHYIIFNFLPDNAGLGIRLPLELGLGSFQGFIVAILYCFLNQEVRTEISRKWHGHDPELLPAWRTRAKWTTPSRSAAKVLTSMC

B1: [Dat1, Gln8, Orn12, Abu15, Orn21, Nle27, Asp28, Apa30]hGHRH(1-30)NH2 (peptide)
peptide: [Desaminotyrosyl]ADAIFTQSYR[Orn]VL[Abu]QLSAR[Orn]LLQDI[Nle]DR[Ava]-NH2
SMILES: CCCC[C@H](NC(=O)[C@@H](NC(=O)[C@H](CC(=O)O)NC(=O)[C@H](CCC(N)=O)NC(=O)[C@H](CC(C)C)NC(=O)[C@H](CC(C)C)NC(=O)[C@H](CCCN)NC(=O)[C@H](CCCNC(=N)N)NC(=O)[C@H](C)NC(=O)[C@H](CO)NC(=O)[C@H](CC(C)C)NC(=O)[C@H](CCC(N)=O)NC(=O)[C@H](CC)NC(=O)[C@H](CC(C)C)NC(=O)[C@@H](NC(=O)[C@H](CCCN)NC(=O)[C@H](CCCNC(=N)N)NC(=O)[C@H](Cc1ccc(O)cc1)NC(=O)[C@H](CO)NC(=O)[C@H](CCC(N)=O)NC(=O)[C@@H](NC(=O)[C@H](Cc1ccccc1)NC(=O)[C@@H](NC(=O)[C@H](C)NC(=O)[C@H](CC(=O)O)NC(=O)[C@H](C)NC(=O)CCc1ccc(O)cc1)[C@@H](C)CC)[C@@H](C)O)C(C)C)[C@@H](C)CC)C(=O)N[C@@H](CC(=O)O)C(=O)N[C@@H](CCCNC(=N)N)C(=O)NCCCCC(N)=O
B2: [Ac-N-Me-Tyr1, D-Ala2, Gln8, Orn12, Abu15, Orn21, Nle27, Asp28, Agm29]hGHRH(1-29) (peptide)
peptide: Ac-[NMeY][dA]DAIFTQSYR[Orn]VL[Abu]QLSAR[Orn]LLQDI[Nle]D[Agmatine]
SMILES: CCCC[C@H](NC(=O)[C@@H](NC(=O)[C@H](CC(=O)O)NC(=O)[C@H](CCC(N)=O)NC(=O)[C@H](CC(C)C)NC(=O)[C@H](CC(C)C)NC(=O)[C@H](CCCN)NC(=O)[C@H](CCCNC(=N)N)NC(=O)[C@H](C)NC(=O)[C@H](CO)NC(=O)[C@H](CC(C)C)NC(=O)[C@H](CCC(N)=O)NC(=O)[C@H](CC)NC(=O)[C@H](CC(C)C)NC(=O)[C@@H](NC(=O)[C@H](CCCN)NC(=O)[C@H](CCCNC(=N)N)NC(=O)[C@H](Cc1ccc(O)cc1)NC(=O)[C@H](CO)NC(=O)[C@H](CCC(N)=O)NC(=O)[C@@H](NC(=O)[C@H](Cc1ccccc1)NC(=O)[C@@H](NC(=O)[C@H](C)NC(=O)[C@H](CC(=O)O)NC(=O)[C@@H](C)NC(=O)[C@H](Cc1ccc(O)cc1)N(C)C(C)=O)[C@@H](C)CC)[C@@H](C)O)C(C)C)[C@@H](C)CC)C(=O)N[C@@H](CC(=O)O)C(=O)NCCCCNC(=N)N
B3: [N-Me-Tyr1, Abu2, Orn12, Abu15, Orn21, Nle27, Gab30]hGHRH(1-30)NH2 (peptide)
peptide: [NMeY][Abu]DAIFTNSYR[Orn]VL[Abu]QLSAR[Orn]LLQDI[Nle]SR[GABA]-NH2
modifications: N-terminus assumed
SMILES: CCCC[C@H](NC(=O)[C@@H](NC(=O)[C@H](CC(=O)O)NC(=O)[C@H](CCC(N)=O)NC(=O)[C@H](CC(C)C)NC(=O)[C@H](CC(C)C)NC(=O)[C@H](CCCN)NC(=O)[C@H](CCCNC(=N)N)NC(=O)[C@H](C)NC(=O)[C@H](CO)NC(=O)[C@H](CC(C)C)NC(=O)[C@H](CCC(N)=O)NC(=O)[C@H](CC)NC(=O)[C@H](CC(C)C)NC(=O)[C@@H](NC(=O)[C@H](CCCN)NC(=O)[C@H](CCCNC(=N)N)NC(=O)[C@H](Cc1ccc(O)cc1)NC(=O)[C@H](CO)NC(=O)[C@H](CC(N)=O)NC(=O)[C@@H](NC(=O)[C@H](Cc1ccccc1)NC(=O)[C@@H](NC(=O)[C@H](C)NC(=O)[C@H](CC(=O)O)NC(=O)[C@H](CC)NC(=O)[C@H](Cc1ccc(O)cc1)NC)[C@@H](C)CC)[C@@H](C)O)C(C)C)[C@@H](C)CC)C(=O)N[C@@H](CO)C(=O)N[C@@H](CCCNC(=N)N)C(=O)NCCCC(N)=O
B4: [Dat1, D-Ala2, N-Me-Ala8, Orn12, Abu15, Orn21, Nle27, Asp28, Agm29]hGHRH(1-29) (peptide)
peptide: [Desaminotyrosyl][dA]DAIFT[NMeA]SYR[Orn]VL[Abu]QLSAR[Orn]LLQDI[Nle]D[Agmatine]
SMILES: CCCC[C@H](NC(=O)[C@@H](NC(=O)[C@H](CC(=O)O)NC(=O)[C@H](CCC(N)=O)NC(=O)[C@H](CC(C)C)NC(=O)[C@H](CC(C)C)NC(=O)[C@H](CCCN)NC(=O)[C@H](CCCNC(=N)N)NC(=O)[C@H](C)NC(=O)[C@H](CO)NC(=O)[C@H](CC(C)C)NC(=O)[C@H](CCC(N)=O)NC(=O)[C@H](CC)NC(=O)[C@H](CC(C)C)NC(=O)[C@@H](NC(=O)[C@H](CCCN)NC(=O)[C@H](CCCNC(=N)N)NC(=O)[C@H](Cc1ccc(O)cc1)NC(=O)[C@H](CO)NC(=O)[C@H](C)N(C)C(=O)[C@@H](NC(=O)[C@H](Cc1ccccc1)NC(=O)[C@@H](NC(=O)[C@H](C)NC(=O)[C@H](CC(=O)O)NC(=O)[C@@H](C)NC(=O)CCc1ccc(O)cc1)[C@@H](C)CC)[C@@H](C)O)C(C)C)[C@@H](C)CC)C(=O)N[C@@H](CC(=O)O)C(=O)NCCCCNC(=N)N
B5: [N-Me-Tyr1, Orn12, Abu15, Orn21, Nle27, Asp28, Amc30]hGHRH(1-30)NH2 (peptide)
peptide: [NMeY]ADAIFTNSYR[Orn]VL[Abu]QLSAR[Orn]LLQDI[Nle]DR[Aoc]-NH2
modifications: N-terminus assumed
SMILES: CCCC[C@H](NC(=O)[C@@H](NC(=O)[C@H](CC(=O)O)NC(=O)[C@H](CCC(N)=O)NC(=O)[C@H](CC(C)C)NC(=O)[C@H](CC(C)C)NC(=O)[C@H](CCCN)NC(=O)[C@H](CCCNC(=N)N)NC(=O)[C@H](C)NC(=O)[C@H](CO)NC(=O)[C@H](CC(C)C)NC(=O)[C@H](CCC(N)=O)NC(=O)[C@H](CC)NC(=O)[C@H](CC(C)C)NC(=O)[C@@H](NC(=O)[C@H](CCCN)NC(=O)[C@H](CCCNC(=N)N)NC(=O)[C@H](Cc1ccc(O)cc1)NC(=O)[C@H](CO)NC(=O)[C@H](CC(N)=O)NC(=O)[C@@H](NC(=O)[C@H](Cc1ccccc1)NC(=O)[C@@H](NC(=O)[C@H](C)NC(=O)[C@H](CC(=O)O)NC(=O)[C@H](C)NC(=O)[C@H](Cc1ccc(O)cc1)NC)[C@@H](C)CC)[C@@H](C)O)C(C)C)[C@@H](C)CC)C(=O)N[C@@H](CC(=O)O)C(=O)N[C@@H](CCCNC(=N)N)C(=O)NCCCCCCCC(N)=O

Non-standard residues stand in square brackets, D forms with d. No end group written: not given here. *: point of attachment. Phe(F5) = N[C@@H](Cc1c(F)c(F)c(F)c(F)c1F)C(=O)O; Desaminotyrosyl = O=C(CCc1ccc(O)cc1)*; NMeY = CN[C@@H](Cc1ccc(O)cc1)C(=O)O; Agmatine = N=C(N)NCCCCN*; NMeA = CN[C@@H](C)C(=O)O; Nle = CCCC[C@H](N)C(=O)O; Orn = NCCC[C@H](N)C(=O)O; Abu = CC[C@H](N)C(=O)O; Aoc = NCCCCCCCC(=O)O; Ava = NCCCCC(=O)O; GABA = NCCCC(=O)O

The target of this experiment is T1, GHRH receptor in human pituitary …. In words: ligand competition, 125I-JV-1-42 displaced, human pituitary membranes.
One may read the IC50 as the concentration needed to halve the response being measured. High values mean a need for much substance, low ones inhibition by little substance. Consider [NMeY]ADAIFTQSYR[Orn]VL[Abu]QLSAR[Orn]LLQDI[Nle]DR-NHMe (not fully specified) [[N-Me-Tyr1, Gln8, Orn12, Abu15, Orn21, Nle27, Asp28]hGHRH(1-29)NH-CH3], for which the half-maximal inhibitory concentration (IC50) was determined as 0.3 nM and the “relative affinity (binding potency) vs JI-38” value (shortened to “relative affinity”) was determined as 14.5 JI-38 = 1.
As to B1, the IC50 amounted to 1.99 nM and the “relative affinity” value is 2.18 JI-38 = 1.
Consider [NMeY][dA]DAI[Phe(F5)]TNSYR[Orn]VL[Abu]QLSAR[Orn]LLQDI[Nle]DR-NHMe [[N-Me-Tyr1, D-Ala2, Fpa5-6, Orn12, Abu15, Orn21, Nle27, Asp28]hGHRH(1-29)NH-CH3], for which the IC50 worked out at 0.87 nM and the “relative affinity” value was found to be 5 JI-38 = 1.
Turning to [NMeY][dA]DAIFTNSYR[Orn]VL[Abu]QLSAR[Orn]LLQDI[Nle]D[Agmatine] [[N-Me-Tyr1, D-Ala2, Orn12, Abu15, Orn21, Nle27, Asp28, Agm29]hGHRH(1-29)], the IC50 was 1.7 nM and the “relative affinity” value stood at 2.56 JI-38 = 1.
Take [NMeY]ADAIFTNSYR[Orn]VL[Abu]QLSAR[Orn]LLQDI[Nle]SR[GABA]-NHMe [[N-Me-Tyr1, Orn12, Abu15, Orn21, Nle27, Gab30]hGHRH(1-30)NH-CH3]: the IC50 worked out at 3.02 nM and the “relative affinity” value is 1.44 JI-38 = 1.
With B2, the IC50 is 3.44 nM and the “relative affinity” value is 1.26 JI-38 = 1.
In the case of [NMeY][dA]DAIFTQSYR[Orn]VL[Abu]QLSAR[Orn]LLQDI[Nle]D[Agmatine] [[N-Me-Tyr1, D-Ala2, Gln8, Orn12, Abu15, Orn21, Nle27, Asp28, Agm29]hGHRH(1-29)], the IC50 amounted to 0.82 nM and the “relative affinity” value amounted to 5.3 JI-38 = 1.
Taken in the same sequence, the figures for [NMeY]ADAIFTQSYR[Orn]VL[Abu]QLSAR[Orn]LLQDI[Nle]DR[Ava]-NH2 [[N-Me-Tyr1, Gln8, Orn12, Abu15, Orn21, Nle27, Asp28, Apa30]hGHRH(1-30)NH2] were 3.8 nM and 1.14 JI-38 = 1.
[Desaminotyrosyl]ADAIFTQSYR[Orn]VL[Abu]QLSAR[Orn]LLQDI[Nle]DR-NHMe (not fully specified) [[Dat1, Gln8, Orn12, Abu15, Orn21, Nle27, Asp28]hGHRH(1-29)NH-CH3]: the IC50 was 3 nM and the “relative affinity” value came out at 1.45 JI-38 = 1.
On to [Desaminotyrosyl]ADAIFTQSYH[Orn]VL[Abu]QLSAH[Orn]LLQDI[Nle]DR-NHMe (not fully specified) [[Dat1, Gln8, His11, Orn12, Abu15, His20, Orn21, Nle27, Asp28]hGHRH(1-29)NH-CH3], for which the IC50 turned out to be 2.45 nM and the “relative affinity” value was 1.78 JI-38 = 1.
For [NMeY]ADAIFTQSYR[Orn]VL[Abu]QLSAR[Orn]LLQDI[Nle]SR-NHMe (not fully specified) [[N-Me-Tyr1, Gln8, Orn12, Abu15, Orn21, Nle27]hGHRH(1-29)NH-CH3], the IC50 came out at 1.08 nM and the “relative affinity” value worked out at 4.03 JI-38 = 1.
Taken in the same sequence, the figures for B3 were 1.18 nM and 3.67 JI-38 = 1.
Consider B4, for which the IC50 worked out at 0.86 nM and the “relative affinity” value is 5.06 JI-38 = 1.
On to [NMeY]ADAIFTQSYR[Orn]VL[Abu]QLSAR[Orn]LLQDI[Nle]SRQ-{GABA-NH2} [[N-Me-Tyr1, Gln8, Orn12, Abu15, Orn21, Nle27, Gln-Gab30]hGHRH(1-30)NH2], for which the IC50 was determined as 1.22 nM and the “relative affinity” value worked out at 3.57 JI-38 = 1.
For the molecule B5, the IC50 stood at 2.99 nM and the “relative affinity” value came out at 1.45 JI-38 = 1.
Take [NMeY][dA]DAI[Phe(F5)]TNSYR[Orn]VL[Abu]QLSAR[Orn]LLQDI[Nle]D[Agmatine] [[N-Me-Tyr1, D-Ala2, Fpa5-6, Orn12, Abu15, Orn21, Nle27, Asp28, Agm29]hGHRH(1-29)]: the IC50 came out at 3.05 nM and the “relative affinity” value was 1.43 JI-38 = 1.

(Values after US9393271B2, “GHRH agonists for islet cell transplantation and function and the treatment of diabetes” (UNIVERSITY OF MIAMI, priority 2012, dated 2016).)
